Test results published in paper PMC10167072, “Human granzyme B binds Plasmodium falciparum Hsp70-x and mediates antiplasmodial activity in vitro” (Cell Stress & Chaperones, 2023).

Tests used:
[1] = target: full-length PfHsp70-xF (P. falciparum); experiment: SPR; Hsp70 immobilised (100 µg/mL) on CMD 3D 500L chip, GrB analyte 0-2000 nM, 25 °C, PBS-Tween 20 with 20 mM EDTA pH 7.4, 25 μL/min, 1:1 Langmuir global fit; with ADP
[2] = target: PfHsp70-xT, truncated PfHsp70-x lacking the C-terminal EEVN residues (P. falciparum); experiment: as above
[3] = target: full-length PfHsp70-xF (P. falciparum); experiment: SPR; Hsp70 immobilised (100 µg/mL) on CMD 3D 500L chip, GrB analyte 0-2000 nM, 25 °C, PBS-Tween 20 with 20 mM EDTA pH 7.4, 25 μL/min, 1:1 Langmuir global fit; no nucleotide
[4] = target: PfHsp70-xT, truncated PfHsp70-x lacking the C-terminal EEVN residues (P. falciparum); experiment: as above
[5] = target: full-length PfHsp70-xF (P. falciparum); experiment: SPR; Hsp70 immobilised (100 µg/mL) on CMD 3D 500L chip, GrB analyte 0-2000 nM, 25 °C, PBS-Tween 20 with 20 mM EDTA pH 7.4, 25 μL/min, 1:1 Langmuir global fit; with ATP
[6] = target: PfHsp70-xT, truncated PfHsp70-x lacking the C-terminal EEVN residues (P. falciparum); experiment: as above
human granzyme B = target: T1, human granzyme B (human, UniProt P10144 19-247); experiment: SPR; GrB immobilised on the chip, TKD peptides injected as analytes at 0, 125, 500, 750 and 1000 nM, 25 °C, 1:1 Langmuir global fit; no nucleotide; conditions: both partners purified
T1 construct: granzyme B, human, serine protease; Bought protein; also called GrB; human GrB; source: bought: Hölzel Diagnostics, Cologne, Germany

human granzyme B (from UniProt P10144 19-247) (enzyme)
Kd [1]: 1 nM | koff [1]: 7.06e-06 s⁻¹ | kon [1]: 3850 M⁻¹ s⁻¹ | Kd [2]: 2820 nM | koff [2]: 2.24e-05 s⁻¹ | kon [2]: 2560 M⁻¹ s⁻¹ | Kd [3]: 4 nM | koff [3]: 1.64e-05 s⁻¹ | kon [3]: 4350 M⁻¹ s⁻¹ | Kd [4]: 2370 nM | koff [4]: 0.000732 s⁻¹ | kon [4]: 2140 M⁻¹ s⁻¹ | Kd [5]: 1 nM | koff [5]: 2.05e-05 s⁻¹ | kon [5]: 6990 M⁻¹ s⁻¹ | Kd [6]: 4200 nM | koff [6]: 0.000123 s⁻¹ | kon [6]: 5870 M⁻¹ s⁻¹

B1: synthetic TKD peptide representing the 14-mer TKD motif of PfHsp70-x (peptide)
peptide: TKDNNLLGKFQLEG
notes: 14-mer TKD motif of PfHsp70-x, Plasmodium falciparum; also called PfHsp70-x TKD; source: synthetic peptide (Genscript, Piscataway, NJ, USA)
Kd (human granzyme B): 20 nM | koff (human granzyme B): 3.62e-05 s⁻¹ | kon (human granzyme B): 3130 M⁻¹ s⁻¹

B2: TKD motif of hHsp70 (14-mer peptide) (peptide)
peptide: TKDNNLLGRFELSG
notes: 14-mer TKD motif of human Hsp70, amino acids 450-463; also called hHsp70 TKD motif
Kd (human granzyme B): 4 nM | koff (human granzyme B): 2.17e-05 s⁻¹ | kon (human granzyme B): 2930 M⁻¹ s⁻¹
